Experimental findings from article PMC3670040, “Structure of Lipid Kinase p110β/p85β Elucidates an Unusual SH2-Domain-Mediated Inhibitory Mechanism” (Molecular Cell, 2011) are described below.

This experiment has as its system p110β. As to the kind of experiment: Mass spectrometry assay of PIP3 production in vitro, brain lipids. It counts as biochemical, mouse. The conditions noted are these: 10 nM protein, 100 μM ATP, 1 mg/ml lipid, 60 min; Figure S3A. The procedure: Figure S3, Related to Figures 1 and 2. Lipid Kinase Assays for p110β/p85 Constructs
(A) Lipid kinase activity of the p110β/p85β-nic, p110β/p85β-ni and p110β/p85β-ic, p110β C-terminal truncation/p85β-nic (ΔCter) and kinase dead (D913N) constructs as determined by mass spectroscopy. Error bars in panel A and other panels indicate SEM of four replicates.
(1 picture or pasted object on this page, not shown here)
Vesicles were "brain lipids" as in Figure S2. The protein concentration was 10 nM with 100 μM ATP and 1 mg/ml lipid. Reactions were carried out for 60 min. The bars show the integrated areas for the stearoyl-arachidonyl PtdIns(3,4,5)P3 peak.
(B) ATPase activity (no lipid substrate) of the wild-type and kinase dead p110β/p85β-nic construct in the absence and presence of 10 μM PDGF bis-phosphopeptide. Protein concentration was 75 nM with 100 μM ATP. Shaded bars represent activity for reactions with 5 μM added PI3K inhibitor GDC0941.
(C) Lipid kinase activity of a p110β/p85-icSH2 complex in which p110β Kα7/Kα8 elbow (966-KTGN) was replaced by the elbow of p110α (968-AQECTK). […]
The PIP3 lipids produced in PI3K in vitro assays as described above were also measured by a mass-spectrometry based assay (Clark et al.). […]

B1: p110β-ΔCter/nic: truncation mutant lacking 17 residues from the p110β C terminus; human ΔCter (1-1053) used in cells (protein, UniProt P42338 1-1053, looked up, fragment)
chain: MCFSFIMPPAMADILDIWAVDSQIASDGSIPVDFLLPTGIYIQLEVPREATISYIKQMLWKQVHNYPMFNLLMDIDSYMFACVNQTAVYEELEDETRRLCDVRPFLPVLKLVTRSCDPGEKLDSKIGVLIGKGLHEFDSLKDPEVNEFRRKMRKFSEEKILSLVGLSWMDWLKQTYPPEHEPSIPENLEDKLYGGKLIVAVHFENCQDVFSFQVSPNMNPIKVNELAIQKRLTIHGKEDEVSPYDYVLQVSGRVEYVFGDHPLIQFQYIRNCVMNRALPHFILVECCKIKKMYEQEMIAIEAAINRNSSNLPLPLPPKKTRIISHVWENNNPFQIVLVKGNKLNTEETVKVHVRAGLFHGTELLCKTIVSSEVSGKNDHIWNEPLEFDINICDLPRMARLCFAVYAVLDKVKTKKSTKTINPSKYQTIRKAGKVHYPVAWVNTMVFDFKGQLRTGDIILHSWSSFPDELEEMLNPMGTVQTNPYTENATALHVKFPENKKQPYYYPPFDKIIEKAAEIASSDSANVSSRGGKKFLPVLKEILDRDPLSQLCENEMDLIWTLRQDCREIFPQSLPKLLLSIKWNKLEDVAQLQALLQIWPKLPPREALELLDFNYPDQYVREYAVGCLRQMSDEELSQYLLQLVQVLKYEPFLDCALSRFLLERALGNRRIGQFLFWHLRSEVHIPAVSVQFGVILEAYCRGSVGHMKVLSKQVEALNKLKTLNSLIKLNAVKLNRAKGKEAMHTCLKQSAYREALSDLQSPLNPCVILSELYVEKCKYMDSKMKPLWLVYNNKVFGEDSVGVIFKNGDDLRQDMLTLQMLRLMDLLWKEAGLDLRMLPYGCLATGDRSGLIEVVSTSETIADIQLNSSNVAAAAAFNKDALLNWLKEYNSGDDLDRAIEEFTLSCAGYCVASYVLGIGDRHSDNIMVKKTGQLFHIDFGHILGNFKSKFGIKRERVPFILTYDFIHVIQQGKTGNTEKFGRFRQCCEDAYLILRRHGNLFITLFALMLTAGLPELTSVKDIQYLKDSLALGKSEEEALKQFKQKFDEALRESW
For the molecule B1, the “activity with brain lipids” value is reported as “no measurable activity”.
